The series addresses T1, GST-ATF2 substrate, P15336.
T1 chain: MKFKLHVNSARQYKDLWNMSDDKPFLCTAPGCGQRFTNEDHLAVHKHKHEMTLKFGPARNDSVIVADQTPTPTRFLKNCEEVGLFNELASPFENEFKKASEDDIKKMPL

B1: epitope-tagged p38-2 (3xHA-p38-2) (protein)
chain: MSGPRAGFYRQELNKTVWEVPQRLQGLRPVGSGAYGSVCSAYDARLRQKVAVKKLSRPFQSLIHARRTYRELRLLKHLKHENVIGLLDVFTPATSLEDFSEVYLVTTLMGADLNNIVKCQALSDEHVQFLVYQLLRGLKYIHSAGIIHRDLKPSNVAVNEDCELRILDFGLARQADEEMTGYVATRWYRAPEIMLNWMHYNQTVDIWSVGCIMAELLQGKALFPGSDYIDQLKRIMEVVGTPSPEVLAKISSEHARTYIQSLPPMPQKDLSSIFRGANPLAIDLLGRMLVLDSDQRVSAAEALAHAYFSQYHDPEDEPEAEPYDEGVEAKERTLEEWKELTYQEVLSFKPPEPPKPPGSLEIEQ
In the case of B1, the “phosphorylation of GST-ATF2 by immunoprecipitated HA-p38-2 ([gamma-32P]ATP, SDS-PAGE, autoradiography)” value was “the inducible phosphorylation of ATF2 depends on a kinase cascade comprised of MEK6 and p38-2”.

Source of the values: patent publication US6677130.
